In data set [1] the test system is HPV16 PsV. It counts as cell-based, human papillomavirus. The conditions noted are these: HeLa cells, nonpolysaccharide compounds, dash = no inhibition at noncytotoxic doses. The protocol: Various candidate HPV infection inhibitors were tested using a PsV-based inhibition assay. The assay uses flow cytometric analysis to assess the inhibition of PsV-mediated delivery of a green fluorescent protein (GFP) reporter plasmid into HeLa cells. HPV16, an exceptionally oncogenic genital HPV type, was chosen as a model HPV for initial experiments.
(§1) Compounds were tested using a previously described PsV-based papillomavirus inhibition assay. Briefly, HeLa cells were plated at 6,000 cells/well in 50 μl of medium in 96-well plates. Candidate inhibitors were dissolved at 1–10 mg/ml (or reconstituted as directed by manufacturer) in sterile water or appropriate solvent, then subjected to a ten-point three-fold serial dilution covering an appropriate concentration range. Diluted candidate inhibitor (50 μl) was added to preplated HeLa cells, followed by 50 μl of diluted PsV stock. The cells were incubated for 24 h, fed by addition of 100 μl of DMEM-10, then subjected to flow cytometric analysis 48–56 h after infection. IC50 values and 95% CI were determined using Prism (GraphPad Software, San Diego, California, United States) to calculate a variable slope sigmoidal dose-response curve.
PsV doses were calibrated such that between 5% and 20% of cells scored as GFP^+ when no inhibitors were added. […] HPV5 PsV infection of HeLa cells was performed with a dose of 35 ng/ml L1. […]

For data set [2], the system named is HeLa cells. Nature of the data set: Cytotoxicity (WST-1 turnover and/or cell morphology). As to conditions: >50% reduction in WST-1 turnover and/or altered cell morphology. The data set is classed as cell-based. The protocol: as §1
Cytotoxicity was defined as a >50% reduction in the net turnover of the metabolic substrate WST-1 (Roche, Indianapolis, Indiana, United States) and/or by the appearance of dramatic alterations in the microscopic appearance of cell morphology at the time of harvest.

As a reminder, the IC50 is the midpoint of a concentration-inhibition curve. Lower therefore signals greater potency.

B1: Lactoferrin (protein, UniProt P24627 20-708, looked up)
Lactotransferrin: APRKNVRWCTISQPEWFKCRRWQWRMKKLGAPSITCVRRAFALECIRAIAEKKADAVTLDGGMVFEAGRDPYKLRPVAAEIYGTKESPQTHYYAVAVVKKGSNFQLDQLQGRKSCHTGLGRSAGWIIPMGILRPYLSWTESLEPLQGAVAKFFSASCVPCIDRQAYPNLCQLCKGEGENQCACSSREPYFGYSGAFKCLQDGAGDVAFVKETTVFENLPEKADRDQYELLCLNNSRAPVDAFKECHLAQVPSHAVVARSVDGKEDLIWKLLSKAQEKFGKNKSRSFQLFGSPPGQRDLLFKDSALGFLRIPSKVDSALYLGSRYLTTLKNLRETAEEVKARYTRVVWCAVGPEEQKKCQQWSQQSGQNVTCATASTTDDCIVLVLKGEADALNLDGGYIYTAGKCGLVPVLAENRKSSKHSSLDCVLRPTEGYLAVAVVKKANEGLTWNSLKDKKSCHTAVDRTAGWNIPMGLIVNQTGSCAFDEFFSQSCAPGADPKSRLCALCAGDDQGLDKCVPNSKEKYYGYTGAFRCLAEDVGDVAFVKNDTVWENTNGESTADWAKNLNREDFRLLCLDGTRKPVTEAQSCHLAVAPNHAVVSRSDRAAHVKQVLLHQQALFGKNGKNCPDKFCLFKSETKNLLFNDNTECLAKLGGRPTYEEYLGTEYVTAIANLKKCSTSPLLEACAFLTR
Molecule B1 registered an IC50 in data set [1] of 13 µg/mL. The same molecule registered a Cytotoxicity in data set [2] greater than 780 µg/mL.

The record behind these values is publication PMC1500806, “Carrageenan Is a Potent Inhibitor of Papillomavirus Infection” (PLoS Pathogens, 2006).
